T1: non-human primate CD7 (non-human primate)
T1 chain: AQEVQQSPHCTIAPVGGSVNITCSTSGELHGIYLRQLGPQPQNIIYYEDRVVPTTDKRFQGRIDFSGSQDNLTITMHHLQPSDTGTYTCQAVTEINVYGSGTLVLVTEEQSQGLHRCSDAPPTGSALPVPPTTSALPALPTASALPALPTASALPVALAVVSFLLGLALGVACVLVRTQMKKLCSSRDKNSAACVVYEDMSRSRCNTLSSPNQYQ

T2: human CD7 (human, UniProt P09564 26-240)
T2 sequence: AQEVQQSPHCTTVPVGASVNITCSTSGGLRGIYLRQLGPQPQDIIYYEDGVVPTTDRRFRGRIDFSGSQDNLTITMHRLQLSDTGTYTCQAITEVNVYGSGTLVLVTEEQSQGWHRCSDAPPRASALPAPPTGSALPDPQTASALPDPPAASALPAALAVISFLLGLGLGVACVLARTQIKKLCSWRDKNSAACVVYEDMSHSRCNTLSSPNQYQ

B1: CD7 Binder (SEQ ID NO. 52) (scFv)
scFv: QVQLQQPGAELVKPGASVKLSCKASGYPFTSYWIHWVKQRPGRGLEWLGRIDPNSGDTKYNEKFKNKATLTVDKSSTTAYMQLSSLTSEDSAVYYCARSPYYSNDNSMDYWGQGTSVTVSSGGGGSGGGGSGGGGSGGGGSDILLTQSPAILSVSPGERVSFSCRASQSIGTSIHWYQQRTNDSPRLLIKYASESISGIPSRFSGSGSGTDFTLSINSVESEDIADYYCQQSNSWPTTFGGGTKLEIKR
B2: CD8 Binder (SEQ ID NO. 69) (scFv)
scFv: NIVLTQSPASLAVSLGQRATISCRASESVDGFGNSFMNWYQQKPGQSPKLLIYLASNLESGVPARFSGSGSRTDFTLTIDPVEADDAATYYCQQNNEDPYTFGGGTKLEIKRGGGGSGGGGSGGGGSGGGGSEVQLQQSGPELVKPGASVKISCKASRYTFTDYNLHWVKLSHEKSLEWIGFIYPYNGGTGYNQKFKNKAKLTVDYSSSTAYMELRSLTSVDAAVYYCARDHRYNEGVSFDYWGQGTTLTVSS
B3: CD8 binder of SEQ ID NO: 70 (printed in Table 1 as 'CD7 Binder (SEQ ID NO. 70)') (scFv)
scFv: EVQLQQSGPELVKPGASVKISCKASRYTFTDYNLHWVKLSHEKSLEWIGFIYPYNGGTGYNQKFKNKAKLTVDYSSSTAYMELRSLTSVDAAVYYCARDHRYNEGVSFDYWGQGTTLTVSSGGGGSGGGGSGGGGSGGGGSNIVLTQSPASLAVSLGQRATISCRASESVDGFGNSFMNWYQQKPGQSPKLLIYLASNLESGVPARFSGSGSRTDFTLTIDPVEADDAATYYCQQNNEDPYTFGGGTKLEIKR
B4: CD7 Binder (SEQ ID NO. 51) (scFv)
scFv: DILLTQSPAILSVSPGERVSFSCRASQSIGTSIHWYQQRTNDSPRLLIKYASESISGIPSRFSGSGSGTDFTLSINSVESEDIADYYCQQSNSWPTTFGGGTKLEIKRGGGGSGGGGSGGGGSGGGGSQVQLQQPGAELVKPGASVKLSCKASGYPFTSYWIHWVKQRPGRGLEWLGRIDPNSGDTKYNEKFKNKATLTVDKSSTTAYMQLSSLTSEDSAVYYCARSPYYSNDNSMDYWGQGTSVTVSS

Tests used:
Test in all cases: cell-based or functional assay
non-human primate CD7 = biological target: T1, non-human primate CD7
human CD7 = biological target: T2, human CD7
non-human primate CD8 = non-human primate CD8 (non-human primate)
human CD8 = human CD8 (human, UniProt P01732 22-235; P10966 22-210)
Sequence of human CD8 (P01732 22-235 Y112C limits assumed, chain 1 of 2): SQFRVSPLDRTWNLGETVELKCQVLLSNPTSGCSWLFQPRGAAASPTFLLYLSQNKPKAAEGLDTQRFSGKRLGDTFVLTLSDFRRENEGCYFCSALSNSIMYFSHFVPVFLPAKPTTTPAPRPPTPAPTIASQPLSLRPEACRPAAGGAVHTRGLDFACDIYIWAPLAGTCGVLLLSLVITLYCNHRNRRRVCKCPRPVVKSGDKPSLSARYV
Sequence of human CD8 (P10966 other isoform, or with tags, fused parts or gaps limits assumed, chain 2 of 2): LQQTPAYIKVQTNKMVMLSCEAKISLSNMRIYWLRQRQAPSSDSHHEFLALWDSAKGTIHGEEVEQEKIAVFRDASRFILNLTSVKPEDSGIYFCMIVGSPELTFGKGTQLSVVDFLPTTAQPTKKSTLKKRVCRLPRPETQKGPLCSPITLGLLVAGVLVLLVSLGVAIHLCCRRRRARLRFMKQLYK

Row | Binder | NHP PBMC Transduction (% positive) (non-human primate CD7) | Human PBMC Transduction (% positive) (human CD7) | NHP PBMC Transduction (% positive) (non-human primate CD8) | Human PBMC Transduction (% positive) (human CD8)
1 | B1 | 5.64 % positive | 21.6 % positive | – | –
2 | B2 | – | – | 1.8 % positive | 4.09 % positive
3 | B3 | – | – | 0.76 % positive | 3.17 % positive
4 | B4 | 2.61 % positive | 19.3 % positive | – | –
